From PMC11771145 (Nature, 2024)

Biological target: the molecule itself
Test: cryo-EM, 2D class averages

B1: Vitiosangium bGSDM, engineered with a thrombin site and cleaved by thrombin (active N-terminal pore-forming domain) (domain or fragment, Vitiosangium sp. GDMCC 1.1324)
chain: SGLCSDPAITYLKRLGYNVVRLPREGIQPLHLLGQQRGTVEYLGSLEKLITQPPSEPPAITRDQAAAGINGQKTENLSFSIGINILKSVLAQFGAGAGIEAQYNQARKVRFEFSNVLADSVEPLAVGQFLKMAEVDADNPVLKQYVLGNGRLYVITQVIKSNEFTVAAEKSGGGSIQLDVPEIQKVVGGKLKVEASVSSQSTVTYKGEKQLVFGFKCFEIGVKNGEITLFASQLVPR
stoichiometry N: 48 to 54 protomers
